Sequences and labels used below:
B1: TRIM29 (parent)
chain: RKCPVHGKTMELFCQTDQTCICYL
B2: NETO1 (parent)
chain: KTSLLDQLTNTSGTVIGVTSCIVI
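Further: lentivirally expressed fusions sorted by FACS into six bins by GFP to DsRed ratio, PSI derived from sequencing read proportions per bin multiplied by bin number.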

Variants of B1 are the subject of the first data set. The data set can be described thus: protein stability index of a GFP-peptide fusion (GPS, HEK-293T) (PSI 1-6); higher = more stable. The following applies: c terminus: a fixed tail appended.
For the variant RKCPVHGKTMELFCQTDQTCICYH, the protein stability index stood at 4.59.
Regarding RKCPVHGKTMELFCQTDQTCICYV, the protein stability index was 4.34.
The same measure, in the same setting: then RKCPVHGKTMELFCQTDQTCICYF, with 4.64.
Same read-out and setting: the figure for RKCPVHGKTMELFCQTDQTCICYD is 5.58.
The same measure, in the same setting: the figure for RKCPVHGKTMELFCQTDQTCICYW is 4.47; for RKCPVHGKTMELFCQTDQTCICYS it is 5.39.
As for RKCPVHGKTMELFCQTDQTCICYA, the protein stability index worked out at 5.02.
Turning to RKCPVHGKTMELFCQTDQTCICYQ, the protein stability index turned out to be 5.07.
For the variant RKCPVHGKTMELFCQTDQTCICYR, the protein stability index stood at 4.89.
As for RKCPVHGKTMELFCQTDQTCICYE, the protein stability index worked out at 4.75.
Regarding RKCPVHGKTMELFCQTDQTCICYC, the protein stability index was 4.74.
The same measure, in the same setting: the figure for RKCPVHGKTMELFCQTDQTCICYT is 5.36.
Take RKCPVHGKTMELFCQTDQTCICYM: the protein stability index was 4.34.
Turning to RKCPVHGKTMELFCQTDQTCICYI, the protein stability index was 4.21.
Take RKCPVHGKTMELFCQTDTTCICYL: the protein stability index was 2.36.
For the variant RKCPVHGKTMELFCQTDETCICYL, the protein stability index amounted to 2.75.
Consider RKCPVHGKTMELFCQTDPTCICYL, for which the protein stability index was determined as 2.7.
Take RKCPVHGKTMELFCQTDYTCICYL: the protein stability index was 1.42.
With RKCPVHGKTMELFCQTDSTCICYL, the protein stability index was found to be 1.68.
Consider RKCPVHGKTMELFCQTDFTCICYL, for which the protein stability index came out at 2.71.
Regarding RKCPVHGKTMELFCQTDHTCICYL, the protein stability index came to 2.18.
The same measure, in the same setting: then RKCPVHGKTMELFCQTDNTCICYL, with 1.82.
Consider RKCPVHGKTMELFCQTDMTCICYL, for which the protein stability index was 2.12.
Regarding RKCPVHGKTMELFCQTDRTCICYL, the protein stability index stood at 1.97.
On the same count and under the same terms, then RKCPVHGKTMELFCQTDLTCICYL, with 2.11; and RKCPVHGKTMELFCQTDKTCICYL, with 3.94; and RKCPVHGKTMELFCQTDWTCICYL, with 1.56.
Regarding RKCPVHGKTMELFCQTDCTCICYL, the protein stability index was 2.22.
Turning to RKCPVHGKTMELFCQTDGTCICYL, the protein stability index came to 2.79.
With RKCPVHGKTMELFCQTDVTCICYL, the protein stability index worked out at 2.65.
As for RKCPVHGKTMELFCQTDATCICYL, the protein stability index worked out at 1.73.
As to RKCPVHGKTMELFCQTDDTCICYL, the protein stability index turned out to be 1.79.
Consider RKCPVHGKTMELFCQTDQTCINYL, for which the protein stability index turned out to be 1.67.
With RKCPVHGKTMELFCQTDQTCITYL, the protein stability index is 2.16.
For RKCPVHGKTMELFCQTDQTCIMYL, the protein stability index came to 2.37.
Regarding RKCPVHGKTMELFCQTDQTCISYL, the protein stability index amounted to 2.46.
As to RKCPVHGKTMELFCQTDQTCIGYL, the protein stability index was found to be 1.99.
Consider RKCPVHGKTMELFCQTDQTCIRYL, for which the protein stability index stood at 1.99.
For RKCPVHGKTMELFCQTDQTCIWYL, the protein stability index came out at 1.23.
For RKCPVHGKTMELFCQTDQTCIPYL, the protein stability index is 2.27.
On the same count and under the same terms, the figure for RKCPVHGKTMELFCQTDQTCIIYL is 2.81; for RKCPVHGKTMELFCQTDQTCIQYL it is 2.02.
On to RKCPVHGKTMELFCQTDQTCIEYL, for which the protein stability index worked out at 2.58.
Regarding RKCPVHGKTMELFCQTDQTCILYL, the protein stability index came to 3.09.
Turning to RKCPVHGKTMELFCQTDQTCIDYL, the protein stability index came out at 2.38.
On to RKCPVHGKTMELFCQTDQTCIVYL, for which the protein stability index amounted to 2.9.
Take RKCPVHGKTMELFCQTDQTCIFYL: the protein stability index stood at 1.31.
Turning to RKCPVHGKTMELFCQTDQTCIYYL, the protein stability index turned out to be 1.45.
On the same count and under the same terms, the figure for RKCPVHGKTMELFCQTDQTCIKYL is 2.04; for RKCPVHGKTMELFCQTDQTCIHYL it is 2.01; for RKCPVHGKTMELFCQTDQTCIAYL it is 1.87.

A further data set covers variants of B2. The data set is described as above. The following applies: c terminus: a fixed tail appended.
Take KTSLLDQLTNTSGTVINVTSCIVI: the protein stability index was determined as 3.28.
Same read-out and setting: then KTSLLDQLTNTSGTVIFVTSCIVI, with 2.72; and KTSLLDQLTNTSGTVIVVTSCIVI, with 2.91.
On the same count and under the same terms, the figure for KTSLLDQLTNTSGTVAGVTSCIVI is 2.44.
For the variant KTSLLDQLTNTSGTVHGVTSCIVI, the protein stability index was 2.67.
KTSLLDQLTNNSGTVIGVTSCIVI: the protein stability index worked out at 2.29.
With KTSLLDQLTNHSGTVIGVTSCIVI, the protein stability index was determined as 3.21.
The same measure, in the same setting: then KTSLLRQLTNTSGTVIGVTSCIVI, with 3.02.
As for KTSLLQQLTNTSGTVIGVTSCIVI, the protein stability index came out at 2.18.
Same read-out and setting: then KTSLLDQLTNTSGTVIGVTSDIVI, with 2.31.
As to KTSLLDQLTNTSGTVIGVTSFIVI, the protein stability index turned out to be 3.65.
Regarding KTSLLDQLTNTSGTVIGVTSVIVI, the protein stability index turned out to be 3.29.
Consider KTSYLDQLTNTSGTVIGVTSCIVI, for which the protein stability index turned out to be 2.83.
As to KTSFLDQLTNTSGTVIGVTSCIVI, the protein stability index was found to be 2.99.
As for KTSLLDQQTNTSGTVIGVTSCIVI, the protein stability index amounted to 3.09.
Consider KTSLLDQWTNTSGTVIGVTSCIVI, for which the protein stability index was determined as 3.83.
Regarding KTSLLDQYTNTSGTVIGVTSCIVI, the protein stability index was 3.41.
Regarding KTSLLDQATNTSGTVIGVTSCIVI, the protein stability index came out at 2.76.
Same read-out and setting: the figure for KTSLLDQLTNTSGTVIGNTSCIVI is 4.17; for KTSLLDQLWNTSGTVIGVTSCIVI it is 3.88; for KTSLLDQLDNTSGTVIGVTSCIVI it is 2.58.
As for KTSLLDQLMNTSGTVIGVTSCIVI, the protein stability index came to 2.4.
In the case of KTRLLDQLTNTSGTVIGVTSCIVI, the protein stability index amounted to 3.26.
In the case of KTFLLDQLTNTSGTVIGVTSCIVI, the protein stability index came to 2.59.
In the case of KTSLLDQLTETSGTVIGVTSCIVI, the protein stability index turned out to be 3.35.
Turning to KTSLLDQLTKTSGTVIGVTSCIVI, the protein stability index was 3.15.
With KTSLLDQLTTTSGTVIGVTSCIVI, the protein stability index came to 2.41.
For KTSLLDQLTNTSGTVIGVTSCIGI, the protein stability index amounted to 1.79.
As for KTSLLDQLTNTSGTVIGVTSCIVM, the protein stability index worked out at 2.45.
Turning to KTSLLDQLTNTSGTVIGVTSCIVD, the protein stability index amounted to 2.54.
Turning to KTSLLDQLTNTSGTVIGVTSCIVN, the protein stability index came out at 2.08.
KTSLLDQLTNTSGTVIGVTSCIVC: the protein stability index stood at 1.64.
Take KTSLLDYLTNTSGTVIGVTSCIVI: the protein stability index is 2.47.
Take KTSLLDQLTNTTGTVIGVTSCIVI: the protein stability index was found to be 2.78.
Same read-out and setting: the figure for KTSLLDQLTNTSGTYIGVTSCIVI is 3.74.
KTSLLDQLTNTSSTVIGVTSCIVI: the protein stability index was 3.19.
The same measure, in the same setting: then KTSLLDQLTNTSTTVIGVTSCIVI, with 2.23; and KTSLLDQLTNTSGTVIGVASCIVI, with 3.16.
Turning to KTSLLDQLTNTSGTVIGVLSCIVI, the protein stability index stood at 3.78.
For the variant KTSLLDQLTNTSGTVIGVDSCIVI, the protein stability index came out at 1.59.
For the variant KTSLLDQLTNTSGTVIGVTSCWVI, the protein stability index is 3.04.
On to KLSLLDQLTNTSGTVIGVTSCIVI, for which the protein stability index came out at 2.58.
FTSLLDQLTNTSGTVIGVTSCIVI: the protein stability index was determined as 3.08.

Source of the values: the supplement of paper PMC10567573.
